Data on 71 molecules can be found in patent publication US20250011363A1, “OPTIMIZED SHORTENED PEPTIDE THAT BINDS TO ACETYLCHOLINE RECEPTOR, AND USE THEREOF” (SKINMED CO., LTD., priority 2021, published 2025).

Experiment [1] concerns the target acetylcholine receptor. The experiment in a line: SPR, AchR immobilised on CM5 chip, peptide at 10 uM. A general note: SPR reads the build-up and loss of mass on a sensor chip optically.
The target of experiment [2] is acetylcholine receptor. The experiment in a line: SPR, AchR immobilised on chip, peptide at 10 uM.

B1: 6mer-1-441 (peptide)
peptide: RRVYYR
As for B1, the Binding affinity (RU) in experiment [1] was found to be 146 RU.

B2: 6mer-1-449 (peptide)
peptide: KRGRCK
In experiment [1], B2 showed a Binding affinity (RU) of 135 RU.

B3: 6mer-1-423 (peptide)
peptide: RRGYCK
On to B3, for which the Binding affinity (RU) in experiment [1] stood at 147 RU.

B4: 6mer-1-464 (peptide)
peptide: RRQRLK
Molecule B4 came in with a Binding affinity (RU) in experiment [1] of 131 RU.

B5: 6mer-1-459 (peptide)
peptide: RRWVYK
B5 had a Binding affinity (RU) in experiment [1] of 131 RU.

B6: 6mer-1-462 (peptide)
peptide: RKQILK
Turning to B6, the Binding affinity (RU) in experiment [1] came to 126 RU.

B7: 6mer-1-1405 (peptide)
peptide: KKVQTR
In experiment [1], B7 yielded a Binding affinity (RU) of 148 RU.

B8: 6mer-1-416 (peptide)
peptide: RKLIYR
Take B8: the Binding affinity (RU) in experiment [1] worked out at 153 RU.

B9: 6mer-1-467 (peptide)
peptide: KRGYQK
For the molecule B9, in experiment [1], the Binding affinity (RU) stood at 121 RU.

B10: 6mer-1-445 (peptide)
peptide: KRVRLR
For B10, in experiment [1], the Binding affinity (RU) amounted to 145 RU.

B11: 6mer-1-430 (peptide)
peptide: KKQLQK
Consider B11, for which, in experiment [1], the Binding affinity (RU) is 144 RU.

B12: 6mer-1-411 (peptide)
peptide: RRQRSR
Molecule B12 showed a Binding affinity (RU) in experiment [1] of 121 RU.

B13: 6mer-1-435 (peptide)
peptide: RKWRCK
The molecule B13 had a Binding affinity (RU) in experiment [1] of 135 RU.

B14: 6mer-1-457 (peptide)
peptide: RKLLCR
In the case of B14, in experiment [1], the Binding affinity (RU) worked out at 121 RU.

B15: 6mer-2-269 (peptide)
peptide: KWVQRK
Consider B15, for which the Binding affinity in experiment [2] was determined as 123 RU.

B16: 6mer-1-446 (peptide)
peptide: RRVIRR
Consider B16, for which the Binding affinity (RU) in experiment [1] came to 124 RU.

B17: 6mer-1-450 (peptide)
peptide: RKVVYK
On to B17, for which the Binding affinity (RU) in experiment [1] worked out at 151 RU.

B18: 6mer-1-426 (peptide)
peptide: KKGQYR
B18: the Binding affinity (RU) in experiment [1] was determined as 131 RU.

B19: 6mer-1-421 (peptide)
peptide: RKVLYR
On to B19, for which the Binding affinity (RU) in experiment [1] was determined as 135 RU.

B20: 6mer-1-413 (peptide)
peptide: RKQFCR
B20 had a Binding affinity (RU) in experiment [1] of 148 RU.

B21: 6mer-1-409 (peptide)
peptide: RRWISR
In turn, B21 displayed a Binding affinity (RU) in experiment [1] of 144 RU.

B22: 6mer-1-444 (peptide)
peptide: KKWILK
In experiment [1], B22 displayed a Binding affinity (RU) of 144 RU.

B23: 6mer-1-461 (peptide)
peptide: RRGYTR
As for B23, in experiment [1], the Binding affinity (RU) worked out at 142 RU.

B24: 6mer-1-412 (peptide)
peptide: RKSILK
Take B24: the Binding affinity (RU) in experiment [1] came to 139 RU.

B25: 6mer-1-404 (peptide)
peptide: KKQRQK
For B25, in experiment [1], the Binding affinity (RU) turned out to be 137 RU.

B26: 6mer-1-407 (peptide)
peptide: KRLRTR
As to B26, in experiment [1], the Binding affinity (RU) came to 153 RU.

B27: 6mer-1-403 (peptide)
peptide: KRSQTK
Regarding B27, in experiment [1], the Binding affinity (RU) worked out at 153 RU.

B28: 6mer-1-1458 (peptide)
peptide: RKGQLK
Consider B28, for which the Binding affinity (RU) in experiment [1] came to 139 RU.

B29: 6mer-1-420 (peptide)
peptide: KKGQYK
As for B29, the Binding affinity (RU) in experiment [1] amounted to 148 RU.

B30: 6mer-1-428 (peptide)
peptide: KRVVLR
On to B30, for which the Binding affinity (RU) in experiment [1] came out at 139 RU.

B31: 6mer-1-410 (peptide)
peptide: KRVLRK
B31: the Binding affinity (RU) in experiment [1] came out at 148 RU.

B32: 6mer-1-425 (peptide)
peptide: RKGVQK
B32 gave a Binding affinity (RU) in experiment [1] of 131 RU.

B33: 6mer-1-452 (peptide)
peptide: KRLYTR
For B33, in experiment [1], the Binding affinity (RU) was found to be 141 RU.

B34: 6mer-1-443 (peptide)
peptide: RKVLLK
In turn, B34 returned a Binding affinity (RU) in experiment [1] of 145 RU.

B35: 6mer-1-437 (peptide)
peptide: RKWFLK
Consider B35, for which, in experiment [1], the Binding affinity (RU) was 131 RU.

B36: 6mer-1-433 (peptide)
peptide: RKQQYR
For the molecule B36, in experiment [1], the Binding affinity (RU) amounted to 154 RU.

B37: 6mer-1-418 (peptide)
peptide: RRQVRK
The molecule B37 registered a Binding affinity (RU) in experiment [1] of 123 RU.

B38: 6mer-1-424 (peptide)
peptide: RRRIYR
Take B38: in experiment [1], the Binding affinity (RU) worked out at 135 RU.

B39: 6mer-1-455 (peptide)
peptide: RRVFYK
Molecule B39 yielded a Binding affinity (RU) in experiment [1] of 126 RU.

B40: 6mer-1-463 (peptide)
peptide: KRSFRK
With B40, the Binding affinity (RU) in experiment [1] is 153 RU.

B41: 6mer-1-429 (peptide)
peptide: RRQRRK
As for B41, in experiment [1], the Binding affinity (RU) stood at 135 RU.

B42: 6mer-1-414 (peptide)
peptide: KRSFLR
In experiment [1], B42 returned a Binding affinity (RU) of 153 RU.

B43: 6mer-1-439 (peptide)
peptide: KRRQTK
B43: the Binding affinity (RU) in experiment [1] was determined as 121 RU.

B44: 6mer-1-402 (peptide)
peptide: RRRVLR
Molecule B44 yielded a Binding affinity (RU) in experiment [1] of 153 RU.

B45: 6mer-1-460 (peptide)
peptide: RRGFYR
Consider B45, for which the Binding affinity (RU) in experiment [1] was 148 RU.

B46: 6mer-1-431 (peptide)
peptide: RRRFRR
Consider B46, for which the Binding affinity (RU) in experiment [1] is 144 RU.

B47: 6mer-1-451 (peptide)
peptide: RKVRLR
In experiment [1], B47 showed a Binding affinity (RU) of 153 RU.

B48: 6mer-1-415 (peptide)
peptide: RRGVCR
The molecule B48 showed a Binding affinity (RU) in experiment [1] of 135 RU.

B49: 6mer-1-456 (peptide)
peptide: RRGQYR
Molecule B49 had a Binding affinity (RU) in experiment [1] of 153 RU.

B50: 6mer-1-454 (peptide)
peptide: RKVLRR
For the molecule B50, the Binding affinity (RU) in experiment [1] was 124 RU.

B51: 6mer-1-448 (peptide)
peptide: RKRFSR
In turn, B51 yielded a Binding affinity (RU) in experiment [1] of 141 RU.

B52: 5mer-1198 (peptide)
peptide: RAADK
B52: the Binding affinity (RU) in experiment [1] stood at 25 RU.

B53: 6mer-1-453 (peptide)
peptide: KKWQQK
Turning to B53, the Binding affinity (RU) in experiment [1] worked out at 154 RU.

B54: 6mer-1-465 (peptide)
peptide: RKQVYK
The molecule B54 showed a Binding affinity (RU) in experiment [1] of 154 RU.

B55: 5mer-898 (peptide)
peptide: RYCMR
On to B55, for which, in experiment [1], the Binding affinity (RU) was 20 RU.

B56: 6mer-2-270 (peptide)
peptide: KSRLRR
Consider B56, for which, in experiment [2], the Binding affinity came to 148 RU.

B57: 6mer-1-406 (peptide)
peptide: RKVLLR
The molecule B57 showed a Binding affinity (RU) in experiment [1] of 153 RU.

B58: 6mer-1-427 (peptide)
peptide: KRWVLR
B58 displayed a Binding affinity (RU) in experiment [1] of 147 RU.

B59: 6mer-1-419 (peptide)
peptide: KRGFYR
Molecule B59 showed a Binding affinity (RU) in experiment [1] of 148 RU.

B60: 6mer-1-408 (peptide)
peptide: KRGRSR
Take B60: the Binding affinity (RU) in experiment [1] was determined as 147 RU.

B61: 6mer-1-434 (peptide)
peptide: KRWVCR
With B61, in experiment [1], the Binding affinity (RU) worked out at 137 RU.

B62: 6mer-1-432 (peptide)
peptide: RKGIQK
In experiment [1], B62 gave a Binding affinity (RU) of 139 RU.

B63: 6mer-1-442 (peptide)
peptide: RKLQYK
Molecule B63 yielded a Binding affinity (RU) in experiment [1] of 131 RU.

B64: 6mer-1-438 (peptide)
peptide: RRGFQK
The molecule B64 displayed a Binding affinity (RU) in experiment [1] of 142 RU.

B65: 6mer-1-447 (peptide)
peptide: RRRQQK
In experiment [1], B65 had a Binding affinity (RU) of 146 RU.

B66: 6mer-1-436 (peptide)
peptide: KKLFYK
Molecule B66 came in with a Binding affinity (RU) in experiment [1] of 148 RU.

B67: 6mer-1-440 (peptide)
peptide: KRVYSK
In experiment [1], B67 yielded a Binding affinity (RU) of 153 RU.

B68: 6mer-1-466 (peptide)
peptide: KRSICR
B68 had a Binding affinity (RU) in experiment [1] of 148 RU.

B69: 6mer-1-422 (peptide)
peptide: KRVRQR
The molecule B69 displayed a Binding affinity (RU) in experiment [1] of 154 RU.

B70: 6mer-1-417 (peptide)
peptide: RKSVCK
With B70, the Binding affinity (RU) in experiment [1] amounted to 139 RU.

B71: 6mer-2-271 (peptide)
peptide: RLFQKK
As for B71, the Binding affinity in experiment [2] was 131 RU.
